Measured values published in patent US20240279318A1 (NANJING LEGEND BIOTECH, published 2024).
Like-named read-outs stand apart in the source and are kept apart here.

Experiments:
[1] = biological target: T1, AFP158/HLA-A*02:01 complex (human); test: SPR, KD ratio to AS170036 VL1VH1;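 further: crude scFv captured on a sensor chip, peptide–HLA complex passed over at several concentrations, association then buffer dissociation, KD derived from on- and off-rates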
T1 construct: flowed over the chip in SPR; also called AFP158 pro
Method: (§1) The experiment was carried out as follows. The crude scFv protein were captured onto the sensorchip. Different concentrations (320, 160, 40 nM) of AFP158/HLA-A*02:01 complex flowed over the sensorchip surface, and were allowed to bind the antibody fragment for 100 s followed by injection of the running buffer to allow dissociation of the complex. On-rate (kd) and off-rate (kd) were calculated based on association and dissociation curve, and were used to estimate the equilibrium dissociation constant (KD).

[2] = biological target: T1, AFP158/HLA-A*02:01 complex; test: SPR, KD ratio to AS170036 VL1VH1; remark: listed apart in the source;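 further: crude scFv captured on a sensor chip, peptide–HLA complex passed over at several concentrations, association then buffer dissociation, KD derived from on- and off-rates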
[3] = biological target: T1, AFP158/HLA-A*02:01 complex; test: SPR, scFv captured, pMHC in flow;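 further: complex injected at several concentrations over crude scFv, association then running-buffer dissociation, KD estimated from kinetic on- and off-rate constants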
[4] = biological target: T1, AFP158/HLA-A*02:01 complex; test: SPR, scFv captured, pMHC in flow; remark: listed apart in the source;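 further: complex injected at several concentrations over crude scFv, association then running-buffer dissociation, KD estimated from kinetic on- and off-rate constants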
Method: as §1

Binder	Affinity increase [1] [fold]	Affinity increase [2] [fold]	Kd [3] [nM]	Kd [4] [nM]
LD97A (scFv, AS170036 VL1VH1 scFv mutein) scFv: QSALTQPRSVSGSPGQSVTISCAGTSSDVGSENYVSWYQQHPGKAPKLMIYQVNKRASGVPDRFSGSKSGNTASLTISGLQAEDEADYYCASYRSSAHNIVFGGGTKLTVLGGGGSGGGGSGGGGSEVQLVESGGGLVQPGGSLRLSCAASGFTFSSYAMSWVRQAPGKGLEWVSTINSGTGSPYYADSVKGRFTISRDNSKNTLYLQMNSLRAEDTAVYYCAKNFFDGSWFLGPPAMDYWGQGTLVTVSSHHHHHH	0.5	0.5	470	470
LE32Y (scFv, AS170036 VL1VH1 scFv mutein) scFv: QSALTQPRSVSGSPGQSVTISCAGTSSDVGSYNYVSWYQQHPGKAPKLMIYQVNKRASGVPDRFSGSKSGNTASLTISGLQAEDEADYYCASYRSSDHNIVFGGGTKLTVLGGGGSGGGGSGGGGSEVQLVESGGGLVQPGGSLRLSCAASGFTFSSYAMSWVRQAPGKGLEWVSTINSGTGSPYYADSVKGRFTISRDNSKNTLYLQMNSLRAEDTAVYYCAKNFFDGSWFLGPPAMDYWGQGTLVTVSSHHHHHH	0.6	0.6	430	430
LH98A (scFv, AS170036 VL1VH1 scFv mutein; also called AS170036 VL1VH1-VLH98A) scFv: QSALTQPRSVSGSPGQSVTISCAGTSSDVGSENYVSWYQQHPGKAPKLMIYQVNKRASGVPDRFSGSKSGNTASLTISGLQAEDEADYYCASYRSSDANIVFGGGTKLTVLGGGGSGGGGSGGGGSEVQLVESGGGLVQPGGSLRLSCAASGFTFSSYAMSWVRQAPGKGLEWVSTINSGTGSPYYADSVKGRFTISRDNSKNTLYLQMNSLRAEDTAVYYCAKNFFDGSWFLGPPAMDYWGQGTLVTVSSHHHHHH	2.3	2.3	110	110
LD97N (scFv, AS170036 VL1VH1 scFv mutein) scFv: QSALTQPRSVSGSPGQSVTISCAGTSSDVGSENYVSWYQQHPGKAPKLMIYQVNKRASGVPDRFSGSKSGNTASLTISGLQAEDEADYYCASYRSSNHNIVFGGGTKLTVLGGGGSGGGGSGGGGSEVQLVESGGGLVQPGGSLRLSCAASGFTFSSYAMSWVRQAPGKGLEWVSTINSGTGSPYYADSVKGRFTISRDNSKNTLYLQMNSLRAEDTAVYYCAKNFFDGSWFLGPPAMDYWGQGTLVTVSSHHHHHH	1	1	240	240
LD97R (scFv, AS170036 VL1VH1 scFv mutein) scFv: QSALTQPRSVSGSPGQSVTISCAGTSSDVGSENYVSWYQQHPGKAPKLMIYQVNKRASGVPDRFSGSKSGNTASLTISGLQAEDEADYYCASYRSSRHNIVFGGGTKLTVLGGGGSGGGGSGGGGSEVQLVESGGGLVQPGGSLRLSCAASGFTFSSYAMSWVRQAPGKGLEWVSTINSGTGSPYYADSVKGRFTISRDNSKNTLYLQMNSLRAEDTAVYYCAKNFFDGSWFLGPPAMDYWGQGTLVTVSSHHHHHH	0.5	0.5	520	520
LD97G (scFv, AS170036 VL1VH1 scFv mutein) scFv: QSALTQPRSVSGSPGQSVTISCAGTSSDVGSENYVSWYQQHPGKAPKLMIYQVNKRASGVPDRFSGSKSGNTASLTISGLQAEDEADYYCASYRSSGHNIVFGGGTKLTVLGGGGSGGGGSGGGGSEVQLVESGGGLVQPGGSLRLSCAASGFTFSSYAMSWVRQAPGKGLEWVSTINSGTGSPYYADSVKGRFTISRDNSKNTLYLQMNSLRAEDTAVYYCAKNFFDGSWFLGPPAMDYWGQGTLVTVSSHHHHHH	0.8	0.8	310	310
LD97K (scFv, AS170036 VL1VH1 scFv mutein) scFv: QSALTQPRSVSGSPGQSVTISCAGTSSDVGSENYVSWYQQHPGKAPKLMIYQVNKRASGVPDRFSGSKSGNTASLTISGLQAEDEADYYCASYRSSKHNIVFGGGTKLTVLGGGGSGGGGSGGGGSEVQLVESGGGLVQPGGSLRLSCAASGFTFSSYAMSWVRQAPGKGLEWVSTINSGTGSPYYADSVKGRFTISRDNSKNTLYLQMNSLRAEDTAVYYCAKNFFDGSWFLGPPAMDYWGQGTLVTVSSHHHHHH	0.6	0.6	410	410
LH98G (scFv, AS170036 VL1VH1 scFv mutein) scFv: QSALTQPRSVSGSPGQSVTISCAGTSSDVGSENYVSWYQQHPGKAPKLMIYQVNKRASGVPDRFSGSKSGNTASLTISGLQAEDEADYYCASYRSSDGNIVFGGGTKLTVLGGGGSGGGGSGGGGSEVQLVESGGGLVQPGGSLRLSCAASGFTFSSYAMSWVRQAPGKGLEWVSTINSGTGSPYYADSVKGRFTISRDNSKNTLYLQMNSLRAEDTAVYYCAKNFFDGSWFLGPPAMDYWGQGTLVTVSSHHHHHH	0.9	0.9	280	280
LH98F (scFv, AS170036 VL1VH1 scFv mutein; also called AS170036 VL1VH1-VLH98F) scFv: QSALTQPRSVSGSPGQSVTISCAGTSSDVGSENYVSWYQQHPGKAPKLMIYQVNKRASGVPDRFSGSKSGNTASLTISGLQAEDEADYYCASYRSSDFNIVFGGGTKLTVLGGGGSGGGGSGGGGSEVQLVESGGGLVQPGGSLRLSCAASGFTFSSYAMSWVRQAPGKGLEWVSTINSGTGSPYYADSVKGRFTISRDNSKNTLYLQMNSLRAEDTAVYYCAKNFFDGSWFLGPPAMDYWGQGTLVTVSSHHHHHH	3.3	3.3	74	74
LE32W (scFv, AS170036 VL1VH1 scFv mutein; also called AS170036 VL1VH1-VLE32W) scFv: QSALTQPRSVSGSPGQSVTISCAGTSSDVGSWNYVSWYQQHPGKAPKLMIYQVNKRASGVPDRFSGSKSGNTASLTISGLQAEDEADYYCASYRSSDHNIVFGGGTKLTVLGGGGSGGGGSGGGGSEVQLVESGGGLVQPGGSLRLSCAASGFTFSSYAMSWVRQAPGKGLEWVSTINSGTGSPYYADSVKGRFTISRDNSKNTLYLQMNSLRAEDTAVYYCAKNFFDGSWFLGPPAMDYWGQGTLVTVSSHHHHHH	2.4	2.4	100	100
LD97S (scFv, AS170036 VL1VH1 scFv mutein) scFv: QSALTQPRSVSGSPGQSVTISCAGTSSDVGSENYVSWYQQHPGKAPKLMIYQVNKRASGVPDRFSGSKSGNTASLTISGLQAEDEADYYCASYRSSSHNIVFGGGTKLTVLGGGGSGGGGSGGGGSEVQLVESGGGLVQPGGSLRLSCAASGFTFSSYAMSWVRQAPGKGLEWVSTINSGTGSPYYADSVKGRFTISRDNSKNTLYLQMNSLRAEDTAVYYCAKNFFDGSWFLGPPAMDYWGQGTLVTVSSHHHHHH	0.6	0.6	420	420
LE32S (scFv, AS170036 VL1VH1 scFv mutein) scFv: QSALTQPRSVSGSPGQSVTISCAGTSSDVGSSNYVSWYQQHPGKAPKLMIYQVNKRASGVPDRFSGSKSGNTASLTISGLQAEDEADYYCASYRSSDHNIVFGGGTKLTVLGGGGSGGGGSGGGGSEVQLVESGGGLVQPGGSLRLSCAASGFTFSSYAMSWVRQAPGKGLEWVSTINSGTGSPYYADSVKGRFTISRDNSKNTLYLQMNSLRAEDTAVYYCAKNFFDGSWFLGPPAMDYWGQGTLVTVSSHHHHHH	0.5	0.5	500	500
LD97T (scFv, AS170036 VL1VH1 scFv mutein) scFv: QSALTQPRSVSGSPGQSVTISCAGTSSDVGSENYVSWYQQHPGKAPKLMIYQVNKRASGVPDRFSGSKSGNTASLTISGLQAEDEADYYCASYRSSTHNIVFGGGTKLTVLGGGGSGGGGSGGGGSEVQLVESGGGLVQPGGSLRLSCAASGFTFSSYAMSWVRQAPGKGLEWVSTINSGTGSPYYADSVKGRFTISRDNSKNTLYLQMNSLRAEDTAVYYCAKNFFDGSWFLGPPAMDYWGQGTLVTVSSHHHHHH	0.7	0.7	360	360
LE32G (scFv, AS170036 VL1VH1 scFv mutein) scFv: QSALTQPRSVSGSPGQSVTISCAGTSSDVGSGNYVSWYQQHPGKAPKLMIYQVNKRASGVPDRFSGSKSGNTASLTISGLQAEDEADYYCASYRSSDHNIVFGGGTKLTVLGGGGSGGGGSGGGGSEVQLVESGGGLVQPGGSLRLSCAASGFTFSSYAMSWVRQAPGKGLEWVSTINSGTGSPYYADSVKGRFTISRDNSKNTLYLQMNSLRAEDTAVYYCAKNFFDGSWFLGPPAMDYWGQGTLVTVSSHHHHHH	0.7	0.7	350	350
LD97H (scFv, AS170036 VL1VH1 scFv mutein) scFv: QSALTQPRSVSGSPGQSVTISCAGTSSDVGSENYVSWYQQHPGKAPKLMIYQVNKRASGVPDRFSGSKSGNTASLTISGLQAEDEADYYCASYRSSHHNIVFGGGTKLTVLGGGGSGGGGSGGGGSEVQLVESGGGLVQPGGSLRLSCAASGFTFSSYAMSWVRQAPGKGLEWVSTINSGTGSPYYADSVKGRFTISRDNSKNTLYLQMNSLRAEDTAVYYCAKNFFDGSWFLGPPAMDYWGQGTLVTVSSHHHHHH	0.6	0.6	420	420
LD97F (scFv, AS170036 VL1VH1 scFv mutein) scFv: QSALTQPRSVSGSPGQSVTISCAGTSSDVGSENYVSWYQQHPGKAPKLMIYQVNKRASGVPDRFSGSKSGNTASLTISGLQAEDEADYYCASYRSSFHNIVFGGGTKLTVLGGGGSGGGGSGGGGSEVQLVESGGGLVQPGGSLRLSCAASGFTFSSYAMSWVRQAPGKGLEWVSTINSGTGSPYYADSVKGRFTISRDNSKNTLYLQMNSLRAEDTAVYYCAKNFFDGSWFLGPPAMDYWGQGTLVTVSSHHHHHH	0.5	0.5	450	450
LE32D (scFv, AS170036 VL1VH1 scFv mutein) scFv: QSALTQPRSVSGSPGQSVTISCAGTSSDVGSDNYVSWYQQHPGKAPKLMIYQVNKRASGVPDRFSGSKSGNTASLTISGLQAEDEADYYCASYRSSDHNIVFGGGTKLTVLGGGGSGGGGSGGGGSEVQLVESGGGLVQPGGSLRLSCAASGFTFSSYAMSWVRQAPGKGLEWVSTINSGTGSPYYADSVKGRFTISRDNSKNTLYLQMNSLRAEDTAVYYCAKNFFDGSWFLGPPAMDYWGQGTLVTVSSHHHHHH	1.3	1.3	190	190
